Laboratory results taken from US20240043869A1.

Biological target: rAAV9 vector (AAV9 capsid: full, intermediate and empty capsids) comprising a mini-dystrophin transgene (adeno-associated virus serotype 9 (AAV9))
Experiment: affinity chromatography lifecycle study, unbound vg in flow through, resin challenge 7.5x10^13 vg/mL resin

“POROS CaptureSelect AAV9 affinity resin ligand (VHH)” was tested, and the % unbound vg was less than 2%.
